Experimental data reported in the supplement of paper PMC9233669.
Variants at the floor of the assay were thinned out.

What was measured:
biotinyl-Phe-oxazolone = test: self-aminoacylation, catalytic enhancement (BFO) (fold over background); higher = more active; k-Seq, kA / k0A0; sequences stand for … in GGGAAUGGAUCCACAUCUACGAAUUC…UUCACUGCAGACUUGACGAAGCUG
How it was run: (§1)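 Mutagenized RNA pools with a 21-nt variable region (0.43 μM) reacted with each biotinyl-aminoacyl-oxazolone at 2–1250 μM. Reactions ran in 50 μL HEPES/NaCl/KCl/MgCl2/CaCl2 buffer with 5% acetonitrile, pH 6.9–7.0, for 90 minutes at room temperature. Streptavidin-captured RNA was quantified by triplicate qPCR and Illumina sequencing, and per-sequence fraction reacted was fit to a pseudo-first-order model with 1000 bootstraps. Catalytic enhancement is median kA divided by the uncatalyzed rate, the low-activity peak of a bimodal Gaussian fit.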

biotinyl-Ile-oxazolone = test: self-aminoacylation, catalytic enhancement (BIO) (fold over background); higher = more active; k-Seq, kA / k0A0; sequences stand for … in GGGAAUGGAUCCACAUCUACGAAUUC…UUCACUGCAGACUUGACGAAGCUG
How it was run: as §1

biotinyl-Met-oxazolone = test: self-aminoacylation, catalytic enhancement (BMO) (fold over background); higher = more active; k-Seq, kA / k0A0; sequences stand for … in GGGAAUGGAUCCACAUCUACGAAUUC…UUCACUGCAGACUUGACGAAGCUG
How it was run: as §1

biotinyl-Val-oxazolone = test: self-aminoacylation, catalytic enhancement (BVO) (fold over background); higher = more active; k-Seq, kA / k0A0; sequences stand for … in GGGAAUGGAUCCACAUCUACGAAUUC…UUCACUGCAGACUUGACGAAGCUG
How it was run: as §1

biotinyl-Leu-oxazolone = test: self-aminoacylation, catalytic enhancement (BLO) (fold over background); higher = more active; k-Seq, kA / k0A0; sequences stand for … in GGGAAUGGAUCCACAUCUACGAAUUC…UUCACUGCAGACUUGACGAAGCUG
How it was run: as §1

biotinyl-Trp-oxazolone = test: self-aminoacylation, catalytic enhancement (BWO) (fold over background); higher = more active; k-Seq, kA / k0A0; sequences stand for … in GGGAAUGGAUCCACAUCUACGAAUUC…UUCACUGCAGACUUGACGAAGCUG
How it was run: as §1

Row | Sequence | self-aminoacylation (biotinyl-Phe-oxazolone) | self-aminoacylation (biotinyl-Ile-oxazolone) | self-aminoacylation (biotinyl-Met-oxazolone) | self-aminoacylation (biotinyl-Val-oxazolone) | self-aminoacylation (biotinyl-Leu-oxazolone) | self-aminoacylation (biotinyl-Trp-oxazolone)
1 | AUUCACCGAGGUCAUCGGGUA [Fam2.2 aminoacylation ribozyme variant] | 25 | 3.33 | 2.93 | 3.97 | 3.22 | 4
2 | UUACGUCAAACAAUCGGUCUG [Fam1A.1 aminoacylation ribozyme variant] | 6.37 | 1.98 | 1.99 | 1.68 | 1.58 | 2.38
3 | CAGUUUGCUAAUAGUCGCCAG [Fam3.1 aminoacylation ribozyme variant] | 10.1 | 1.86 | 1.91 | 2.17 | 2.43 | 2.45
4 | AUUCACCUAGGUCAUCGAUUG [Fam2.2 aminoacylation ribozyme variant] | 0.422 | 0.512 | 0.539 | 0.586 | 0.502 | 0.489
5 | AUUCCCCUAGGUCCUCGGGUG [Fam2.2 aminoacylation ribozyme variant] | 241 | 19.6 | 26.9 | 17.1 | 37.9 | 24.6
6 | AUUCCCCUAGGUCAUAGGGUG [Fam2.2 aminoacylation ribozyme variant] | 17.1 | 3.38 | 4.99 | 3.08 | 6.57 | 4.78
7 | CCACCCUUCAAGCAAUCGCUC [Fam1B.1 aminoacylation ribozyme variant] | 0.977 | 1.65 | 1.87 | 2.28 | 2.55 | 2.73
8 | AUUACCCUGGGCACCGAGUGA [Fam2.1 aminoacylation ribozyme variant] | 37.9 | 3.37 | 6.11 | 2.84 | 6.68 | 5.46
9 | AAGUUACCUAAUAGUCGCAAG [Fam3.1 aminoacylation ribozyme variant] | 2.52 | 1.25 | 1.44 | 1.4 | 1.39 | 1.74
10 | AUUCACCUAGGUGAUCCGGUG [Fam2.2 aminoacylation ribozyme variant] | 22.1 | 3.26 | 5.12 | 3.03 | 4.06 | 3.31
11 | CUACUUCUAAUAAUCGGUCUG [Fam1A.1 aminoacylation ribozyme variant] | 1.02 | 0.776 | 0.699 | 0.792 | 0.63 | 0.774
12 | AUCCACCUAGGUCAUCCGGUG [Fam2.2 aminoacylation ribozyme variant] | 46.1 | 5.53 | 7.38 | 6.56 | 7.31 | 7.83
13 | AUUUCCCUUGUCAUCGAGUGA [Fam2.1 aminoacylation ribozyme variant] | 46 | 3.62 | 7.14 | 4.17 | 7.73 | 8.99
14 | UCACACUUCACGCAAUCGGUC [Fam1B.1 aminoacylation ribozyme variant] | 0.767 | 1.03 | 0.81 | 1.21 | 0.873 | 0.908
15 | AUUACCCUAGGCAUCGAGUGA [Fam2.1 aminoacylation ribozyme variant] | 18.1 | 2.47 | 5.3 | 2.68 | 5.37 | 6.47
16 | ACUACGCUGGUCAUCGAGUGA [Fam2.1 aminoacylation ribozyme variant] | 35.1 | 4.74 | 5.77 | 4.04 | 5.5 | 7.58
17 | CAGUUUGCUGAUAGUCGCAAG [Fam3.1 aminoacylation ribozyme variant] | 1.88 | 1.34 | 1.11 | 1.27 | 1.17 | 1.99
18 | AAGUUUGCUAAUAGUCACUAG [Fam3.1 aminoacylation ribozyme variant] | 1.1 | 1.08 | 0.981 | 0.939 | 0.836 | 1.13
19 | AUUGACAUAGGUCAUCGGGUG [Fam2.2 aminoacylation ribozyme variant] | 48.4 | 5.14 | 7.3 | 4.42 | 8.84 | 8.04
20 | AUUACCCUUCUCAUCGAGUGA [Fam2.1 aminoacylation ribozyme variant] | 30.8 | 3.51 | 6.6 | 3.65 | 6.53 | 9.57
21 | CUACUUCACACAAUUGGUCUG [Fam1A.1 aminoacylation ribozyme variant] | 0.431 | 0.948 | 1 | 0.739 | 0.729 | 0.828
22 | AUUCACCUAGGUCAGCGGGUA [Fam2.2 aminoacylation ribozyme variant] | 10.5 | 2.12 | 2.18 | 2.08 | 3.01 | 2.05
23 | CUACUUCACACACUCGGUCUG [Fam1A.1 aminoacylation ribozyme variant] | 1.31 | 1.42 | 1.42 | 1.49 | 1.69 | 1.16
24 | CUACUUCAUACAAACGGUCUG [Fam1A.1 aminoacylation ribozyme variant] | 1.06 | 0.936 | 0.725 | 0.803 | 0.652 | 0.536
25 | CUACUUCCAACAAUCGAUCUG [Fam1A.1 aminoacylation ribozyme variant] | 0.773 | 0.747 | 0.494 | 0.549 | 0.664 | 0.608
26 | AUUACCCUGGUGAUCCAGUGA [Fam2.1 aminoacylation ribozyme variant] | 60.7 | 4.33 | 9.84 | 4.65 | 9.64 | 12.4
